Experiment [1] concerns the target T1, Recombinant human CTLA-4-Fc fusion protein (R&D Systems, Catalog number 352-CTY/CF) (human, UniProt P16410 37-162).
T1 construct: range 37-162; Bought reagent; also called rhCTLA-4; rhCTLA-4-Fc; not shown: immunoglobulin gamma I Fc region
T1 sequence (looked up): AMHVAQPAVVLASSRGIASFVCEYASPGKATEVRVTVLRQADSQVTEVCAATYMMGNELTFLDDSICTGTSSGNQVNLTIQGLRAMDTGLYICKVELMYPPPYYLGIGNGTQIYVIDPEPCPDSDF
Briefly: ELISA on coated CTLA-4 (rhCTLA-4-Fc), scFv phage at one amount, anti-M13-HRP, absorbance at 450 nm. Background: In an ELISA, binding on a coated surface is turned into a signal by an enzyme label.

Experiment [2] has as its target T1, Recombinant human CTLA-4-Fc fusion …. Briefly: ELISA, plates coated with purified rhCTLA-4, 4-parameter fit; C5 mAb.
For experiment [3] the target is unchanged. Nature of the experiment: BLI (Fortebio), mAb captured on sensors, rhCTLA-4-Fc in solution 100 nM to 1.6 nM. The method, then: Kinetic analysis of binding to rhCTLA-4. […] The sensors were then blocked in the blocking solution for 5 min. Recombinant human CTLA-4-Fc protein was two-fold serial diluted in the blocking solution to 7 different concentrations, range from 100 nM to 1.6 nM. Kinetic association assays were started by putting antibody-capturing sensors into above serial diluted CTLA-4-Fc solutions. One sensor was immersed into the blocking solution as negative control. After 5 min binding, all sensors were moved to the blocking solution to start kinetic dissociation assays. Assays were stopped after 7 min.
(In general: BLI is a label-free optical method that tracks binding on a fibre tip over time.)

Experiment [4] has the same target. Nature of the experiment: ELISA on coated rhCTLA-4, goat anti-human IgG F(ab') alkaline phosphatase, OD 415 nm.
Experiment [5] shares this target. Briefly: ELISA, plates coated with purified rhCTLA-4, 4-parameter fit; C2 mAb.
The target is the same in experiment [6]. Nature of the experiment: ELISA on coated rhCTLA-4, goat anti-human IgG F(ab') alkaline phosphatase, OD 415 nm. This is another data set of the same source.
For experiment [7] the target is unchanged. Nature of the experiment: competition ELISA on coated rhCTLA-4-Fc, 10 ng/ml biotin-B7-1-Fc mixed with the antibody, streptavidin alkaline phosphatase, absorption at 405 nm.
Method: Human recombinant CTLA-4-Fc (2 ug/ml) in 50 ul of 20 mM NaHCO3, pH 9.7 was coated on 96-well plates and incubated at 4° C. overnight. After rhCTLA-4-Fc was removed, the plates were blocked with 100 ul of 3% BSA in wash/dilution buffer (TBS buffer, pH 7.0 containing 0.05% Tween-20) at 37° C. for 2 hours. […] The mixtures (50 ul/well) were added to rhCTLA-4-Fc coated plates and incubated at 37° C. for 2 hours. The solution was decanted, and the plates were washed 3 times with wash buffer. Alkaline phosphatase conjugated streptavidin (Herochem Inc., China) was diluted 2500-fold in binding buffer and add 50 ul/well to plates. After the plates were incubated at 37° C. for 2 hours, the AP-streptavidin solution was decanted, and the plates were washed 6 times with wash buffer. Alkaline phosphatase substrate pNpp solution was added 50 ul/well to plates. The plates were incubated at 37° C. for 20 min and read at 405 nm using a Bio-Rad microplate reader. […] All samples were tested in duplicate.

Where two headings read alike, the source gives them in different places.

B1: C15 (scFv, V domains shown, not shown: large carriers; small tags and cut ends)
VH: QVQLVQSGAEVKKPGSSVKVSCKASGGTFSSYAISWVRQAPGQGLEWMGGIIPIFGTANYAQKFQGRVTITADESTSTAYMELSSLRSEDTAVYYCARDTAMALFYYYYGMDVWGQGTLVTVSS
VL: QSALTQPASVSGSPGQSTTISCTGTSSDVGGYNYVSWYQQHPGKAPKLMIYEVSNRPSGVSNRFSGSKSGNTASLTISGLQAEDEADYYCSSYRSSGTPYVFGTGTKLTVL
notes: scFv phage form of clone C15; also called clone C15 scFv phage; C15 scFv; copies: 1 + 1
Regarding B1, the binding result in experiment [1] is recorded as “binds”.

B2: C5 mAb (anti-human CTLA-4 full length human monoclonal antibody) (antibody, V domains shown)
VH: QVQLVQSGAEVKKPGASVKVSCKASGFSFPNYYMHWVRQAPGQGLEWMGIISPTGGSRTYAQKFQGRVTITRDTSTSTVYMELSSLRSEDTAVYYCAREMYNWNGGWDYGMDVWGQGTLVTVSS
VL: QSALTQSASVSGFPGQSITVSCVGTNSDVEAYDLVSWYRQHPDKSPNLLIYDNYKRPSGVSDRFSAFKSGNTASLTISGLQAEDEAYYYCCSYAGFSTWIFGAGTQLTVLG
notes: also called clone C5; KD6001-5
Broadly, the EC50 is the concentration needed to bring the measured effect to its halfway point. For orientation: Kd means the free concentration of one partner at which half of the binding sites on the other are occupied at equilibrium, for simple one-to-one binding. In general, koff refers to the rate constant with which the complex falls apart. As usually defined, the kon is the second-order rate constant of association. A word on the EC50 (read off the curve): it is the midpoint of the concentration-response curve. As to B2, the 50% effective concentration (EC50) in experiment [2] amounted to 0.066 µg/mL. Also, in experiment [3], the Kd is 2.2 nM, the koff came to 0.00061 s⁻¹ and the kon was 280000 M⁻¹ s⁻¹. Further, the “EC50 (read off the curve)” value in experiment [4] was roughly 0.08 µg/mL.

B3: C2 mAb (anti-human CTLA-4 full length human monoclonal antibody) (antibody, V domains shown)
VH: QVQLVQSGGGVVQPGRSLRLSCAASGFTFSSYGMHWVRQAPGKGLEWVAVIWYDGSRQYYADSVKGRFTISRDDSKNTMYLQMNSLRAEDTAVYYCARGGFWGAFDIWGQGTMVTVSS
VL: DVVMTQSPGTLSLSPGEGATLSCRASQHVISSYLAWYQQKPGQAPRLLVYGASSRDTGVSDRFTGSGSGTDFTLTISRLEPEDSAVYFCQQYGTSPWTFGQGTKLEIKR
notes: also called clone C2; KD6001-2
As for B3, in experiment [5], the EC50 amounted to 0.025 µg/mL. Moreover, in experiment [3], the Kd is 0.86 nM, the koff was found to be 0.00048 s⁻¹ and the kon came to 550000 M⁻¹ s⁻¹. For the same molecule, in experiment [6], the “EC50 (read off the curve)” value was roughly 0.03 µg/mL. In addition, the “IC50 (read off the curve)” value in experiment [7] is roughly 0.03 µg/mL.

The record behind these values is patent US20200262921A1 (SHANGHAI KANDA BIOTECHNOLOGY, published 2020).
